In patent US20140037547A1 (UNIVERSITY OF VERMONT AND STATE AGRICULTURAL COLLEGE, published 2014):
Each block holds one binder with its values, some of them ahead of it.

How the values were obtained:
SW:329-349 = biological target: T1, SW:329-349
T1 chain: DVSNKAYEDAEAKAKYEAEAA

SW:329-358 = biological target: T2, SW:329-358
T2 chain: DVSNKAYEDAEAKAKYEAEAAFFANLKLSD

[1] = biological target: T3, wild-type PKG Iα (cGMP-dependent protein kinase type Iα, full length) (UniProt P00516 2-671); test: cell-based or functional assay
T3 sequence (looked up): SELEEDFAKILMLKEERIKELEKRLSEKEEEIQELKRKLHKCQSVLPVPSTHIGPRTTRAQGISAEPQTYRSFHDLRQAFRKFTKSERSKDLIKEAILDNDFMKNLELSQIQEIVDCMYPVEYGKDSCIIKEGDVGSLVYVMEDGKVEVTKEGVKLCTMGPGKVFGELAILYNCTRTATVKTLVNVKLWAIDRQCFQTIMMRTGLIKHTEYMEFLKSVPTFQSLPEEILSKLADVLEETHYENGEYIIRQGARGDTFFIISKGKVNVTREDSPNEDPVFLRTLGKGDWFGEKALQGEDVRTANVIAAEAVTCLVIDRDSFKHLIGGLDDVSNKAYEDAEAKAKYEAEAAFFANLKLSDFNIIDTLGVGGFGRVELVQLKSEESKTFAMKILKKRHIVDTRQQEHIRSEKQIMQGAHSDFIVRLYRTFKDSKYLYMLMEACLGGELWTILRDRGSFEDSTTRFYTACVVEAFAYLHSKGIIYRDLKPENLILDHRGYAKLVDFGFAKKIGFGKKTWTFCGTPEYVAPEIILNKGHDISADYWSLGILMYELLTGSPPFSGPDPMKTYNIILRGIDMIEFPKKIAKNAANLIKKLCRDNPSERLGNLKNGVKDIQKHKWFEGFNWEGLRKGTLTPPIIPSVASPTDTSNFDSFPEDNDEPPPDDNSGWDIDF

B1: wild-type PKG Iα (cGMP-dependent protein kinase type Iα, full length) (protein)
chain: T3 sequence (looked up)
- activation of PKG Iα (32P-incorporation assay, cGMP priming conditions) (SW:329-349): rendered a completely inactive SW-peptide derivative
- Ka (activation of PKG Iα, 32P-incorporation assay) (SW:329-358): Ka=500 µM

- Ka (activation of PKG) [1]: 500 µM
- activation relative to activation associated with cGMP [1]: 30%
Binder: AAFFANLK [SW:348-355 AAFFANLK]

- Ka (activation of PKG Iα, cGMP priming conditions) [1]: 500 µM
Binder: DVSNKAYEDAEAKAKYEAEAAFFANLK [SW:329-355]

- Ka (activation of PKG Iα, kinase primed with 100 nM cGMP) [1]: 40 µM
- shift of the activation profile on priming with 100 nM cGMP [1]: 20 fold
Binder: DVSNKAYEDAEAKAKYEAEAAFFANLKLSD [SW:329-358]
